Test results published in US20090291083A1, “BARB4 TARGET, ANTIBODY DESIGNATED BARB4, BARB4 RELATED ANTIBODIES, AND METHODS OF MAKING AND USING SAME” (PATRYS LIMITED, priority 2008, published 2009).

Tested on: TAF 15
Assay: Immunoprecipitation of cell extracts with BARB4 and Western blotting
Format: binding, human
Details: MKN cell extracts
Experimental: To further validate BARB4 target protein TAF 15, BARB4 and a commercial TAF 15 antibody (anti-human TAFII p68, Santa Cruz Biotechnology, sc-81121) were analyzed for binding to BxPC-3, HEK 293, A549 and HeLa cell lines. In brief, cells were trypsinized with cell dissociation solution (Sigma C5789), resuspended in complete medium (RPMI 1640, PAA, E15-039, 10% Fetal bovine serum, PAA, A15-151 and 1% Glutamine, PAA, M11-004) and set on 2×10^5/ml. After 30 minutes on ice, cells were dispersed at 1 ml per FACS-tube and washed once with ice-cold PBS by centrifugation with 500 g and 4° C. Staining was done with BARB4 (100 ug/ml) or the commercial TAF 15 (25 μg/ml) IgG antibodies, control IgGs (IgG lambda, or mouse IgG), or without antibody in 200 μl PBS. Cells were incubated with 25 μg/ml antibody in 100 μl for 30 minutes on ice, then washed with ice cold PBS and secondary antibody (anti mouse IgG-FITC, dianova 115-095-008) was applied at a dilution of 1:50 in 200 μl per tube. After another 30 minutes of incubation in the dark, cells were washed twice with PBS and analyzed by FACS. […] BARB4 target protein TAF 15 validation was then analyzed by immunoprecipitation of MKNcell extracts with BARB4 and subsequent Western blotting with either BARB4 or anti-TAF 15 antibodies (Biomol, A300-308A; or Aviva, ARP30111_T100). […]

B1: BARB4: human IgG antibody produced by hybridoma DSMZ Deposit No. DSM ACC2876; heavy chain SEQ ID NOs:1, 3, 5, 7, light chain SEQ ID NO:9 (antibody, V domains shown)
VH: QVQLVESGGGVVQPGRSLRLSCAASGFRFTTHGMHWVRQAPGKGLEWVAVISYNGRNKYYADYVNGRFTISRDDSRDTVFLQMNSLRPEDTAMYYCAKVRGDGYGDYGYFDYWGHGTLVSVSS
VL: QSALTQPRSVSGSPGQSVTISCTGTYNYVSWYQQHPGKAPKLMIFDVSRRSSGVPDRFSGSKSGNTASLTISGLQAEDEADYYCCSYGGTYLYVFGTGTTVTVLGQ
detection of TAF15 in the immunoprecipitate by Western staining with BARB4 antibody (FIG. 9B, assay conditions may not be optimized): did not appear to detect TAF15
immunoprecipitation of TAF 15, Western staining with anti-TAF 15 antibodies (FIGS. 9A and 9C): able to immunoprecipiate TAF 15
